These results are taken from US20230174609A1, “EXTENDED TIME ACTION ACYLATED INSULIN COMPOUNDS” (Eli Lilly and Company, priority 2020, published 2023).

In assay [1] the target is human insulin receptor subtype A (hIR-A) (human) (UniProt P06213). Put plainly: cell-based or functional assay.
The target in assay [2] is human insulin receptor subtype B (hIR-B) containing a C-terminal C9 tag (human) (UniProt P06213). Put plainly: cell-based or functional assay.
Assay [3] has the same target. Briefly: SPA competitive radioligand binding, hIR-B membranes, 0.1% BSA.
The target is the same in assay [4]. Briefly: SPA competitive radioligand binding, hIR-B membranes, 0.1% HSA.
Assay [5] shares this target. Put plainly: SPA competitive radioligand binding, hIR-B membranes, 0.001% NP-40.

As usually defined, the Ki is a measure of affinity in units of concentration, obtained from inhibition or displacement. Low readings indicate a stronger hold on the target, high ones a looser hold on the target.

Regarding “Example 2 (A14E, B16H, B25H, desB30 human insulin acylated at Lys B29 with HO2C-(CH2)18-CO-γGlu-γGlu-γGlu-Lys-(2-[2-(2-aminoethoxy)ethoxy]acetic acid)-) (ligand)”, in assay [1], the receptor tyrosine auto-phosphorylation in HEK293 cells, ELISA, EC50, 0.1% BSA worked out at 3040 nM and the receptor tyrosine auto-phosphorylation in HEK293 cells, ELISA, EC50, 0.1% Casein turned out to be 478 nM. The receptor tyrosine auto-phosphorylation in HEK293 cells, ELISA, EC50, 0.1% BSA in assay [2] is 1790 nM.

For “Example 3 (A14E, B16H, B25H, desB30 human insulin acylated at Lys B29 with HO2C-(CH2)18-CO-γGlu-γGlu-γGlu-εLys-Gly-) (ligand)”, the receptor tyrosine auto-phosphorylation in HEK293 cells, ELISA, EC50, 0.1% BSA in assay [1] amounted to 3180 nM; in assay [2], 1220 nM. The values for the receptor tyrosine auto-phosphorylation in HEK293 cells, ELISA, EC50, 0.1% Casein in assay [1] and in assay [2] were 627 nM and 183 nM, respectively.

In assay [1], “Example 1 (A14E, B16H, B25H, desB30 human insulin acylated at Lys B29 with HO2C-(CH2)18-CO-γGlu-γGlu-γGlu-Lys-Gly-) (ligand)” gave a receptor tyrosine auto-phosphorylation in HEK293 cells, ELISA, EC50, 0.1% BSA of 2550 nM and a receptor tyrosine auto-phosphorylation in HEK293 cells, ELISA, EC50, 0.1% Casein of 588 nM. The receptor tyrosine auto-phosphorylation in HEK293 cells, ELISA, EC50, 0.1% BSA in assay [2] was found to be 1560 nM.

As for “insulin-like growth factor 1 (IGF-1) (from UniProt P05019 49-118) (ligand)”, in assay [2], the receptor tyrosine auto-phosphorylation in HEK293 cells, ELISA, EC50, 0.1% BSA was found to be 771 nM. Further, in assay [2], the receptor tyrosine auto-phosphorylation in HEK293 cells, ELISA, EC50, 0.1% Casein came out at 577 nM. The Ki in assay [3] is 67.3 nM; in assay [4], 54.3 nM; in assay [5], 86.1 nM.
